Assay results published in PMC6422694.

Tested on: NC(=O)c1ccc[n+]([C@@H]2O[C@H](COP(=O)(O)OP(=O)(O)OC[C@H]3O[C@@H](n4cnc5c(N)ncnc54)[C@H](O)[C@@H]3O)[C@@H](O)[C@H]2O)c1
Test: purified protein
Settings: pH 8.1

## (Oryza sativa Japonica Group)
  Km: 193.7 ± 98.2 µM
